Experimental data taken from paper PMC12215978, “CryoEM structure of the SLFN14 endoribonuclease reveals insight into RNA binding and cleavage” (Nature Communications, 2025).
Where “and” joins values, the source holds several entries; their conditions need not be identical. Equal entries are not always repeated. One block for each molecule: values may come before it.

Tests used:
[1] = molecular target: SLFN14^ΔCTD, SLFN14 C-terminal truncation that lacks the CTD (human); experiment: SEC; Superdex-200 Increase 3.2/300, 5–10 μM protein, storage buffer (20 mM Tris pH 7.4, 150 mM NaCl, 5 mM MgCl2, 1 mM TCEP), calibrated with gel filtration standards
[2] = molecular target: isolated SLFN14 CTD (SLFN14^CTD) (human); experiment: as above
[3] = molecular target: the molecule itself; experiment: mass photometry; purified SLFN14 in solution; also exposed to high salt conditions; methods not shown

stoichiometry N [1]: 2
Molecule: SLFN14^ΔCTD, SLFN14 C-terminal truncation that lacks the CTD (domain or fragment)

stoichiometry N [2]: 2
Molecule: isolated SLFN14 CTD (SLFN14^CTD) (domain or fragment)

B1: full-length recombinant human SLFN14 (residues 1–912), C-terminally Flag-tagged (enzyme, UniProt P0C7P3 1-912, looked up)
chain: MESLKTDTEMPYPEVIVDVGRVIFGEENRKKMTNSCLKRSENSRIIRAICALLNSGGGVIKAEIDDKTYSYQCHGLGQDLETSFQKLLPSGSQKYLDYMQQGHNLLIFVKSWSPDVFSLPLRICSLRSNLYRRDVTSAINLSASSALELLREKGFRAQRGRPRVKKLHPQQVLNRCIQEEEDMRILASEFFKKDKLMYKEKLNFTESTHVEFKRFTTKKVIPRIKEMLPHYVSAFANTQGGYVLIGVDDKSKEVVGCKWEKVNPDLLKKEIENCIEKLPTFHFCCEKPKVNFTTKILNVYQKDVLDGYVCVIQVEPFCCVVFAEAPDSWIMKDNSVTRLTAEQWVVMMLDTQSAPPSLVTDYNSCLISSASSARKSPGYPIKVHKFKEALQRHLFPVTQEEVQFKPESLCKKLFSDHKELEGLMKTLIHPCSQGIVIFSRSWAGDVGFRKEQNVLCDALLIAVNSPVVLYTILIDPNWPGGLEYARNTAHQLKQKLQTVGGYTGKVCIIPRLIHLSSTQSRPGEIPLRYPRSYRLADEEEMEDLLQALVVVSLSSRSLLSDQMGCEFFNLLIMEQSQLLSESLQKTRELFIYCFPGVRKTALAIKIMEKIKDLFHCKPKEILYVCESDSLKDFVTQQTTCQAVTRKTFMQGEFLKIKHIVMDETENFCSKYGNWYMKAKNITHPKAKGTGSENLHHGILWLFLDPFQIHHADVNGLPPPSAQFPRKTITSGIHCALEIAKVMKEEMKRIKENPPSNMSPDTLALFSETAYEEATCAQALPGVCETKTNLTTEQIANYVARKCHSLFQCGYLPKDIAILCRRGEDRGRYRLALLKAMELIETHRPSEVVFSPATGVWGSHIVLDSIQQFSGLERTVVFGLSPECDQSEEFHKLCFASRAIKHLYLLYEKRAAY
notes: human SLFN14, full length, residues 1-912; The sample keeps co-purified cellular nucleic acid, and the structure has RNA in the cleft; also called SLFN14 wild-type (WT); Schlafen 14; not shown: Flag, C-terminal, kept
stoichiometry N [3]: 2 and 4
